38 molecules from paper PMC314469, “Protein Interaction Networks by Proteome Peptide Scanning” (PLoS Biology, 2004) can be followed below.

Test [1] addresses T1, amphyphisin SH3 (AMPH_HUMAN), P49418.
T1 chain: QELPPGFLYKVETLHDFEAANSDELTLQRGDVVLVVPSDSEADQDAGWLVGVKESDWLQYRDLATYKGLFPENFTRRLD
Description: SPOT array.

The target of test [2] is endophilin SH3 (SH3G2_HUMAN), Q99962. The experiment in a line: SPOT array.

B1: Q9Y6Z1 10-23 (peptide)
chain: ESRDITRPSRPADL
Turning to B1, the normalised SPOT signal, Boehringer light units (BLU); mean over the file's lines of this peptide in test [1] stood at 192; in test [2], 134.

B2: Q16632 163-177 (peptide)
chain: ESQSPKRPPEDFET
B2: the figures for the normalised SPOT signal, Boehringer light units (BLU); mean over the file's lines of this peptide in test [1] and in test [2] were 42 and 49.5, respectively.

B3: P23470 686-699 (peptide)
chain: AGSDPKRPEMPSKK
Regarding B3, the normalised SPOT signal, Boehringer light units (BLU); mean over the file's lines of this peptide in test [1] was found to be 23.2; in test [2] it was 66.5.

B4: Q9NU22 852-865 (peptide)
chain: EQVDLIRPWRRLLE
Take B4: the normalised SPOT signal, Boehringer light units (BLU); mean over the file's lines of this peptide in test [1] is 131; in test [2], 147.

B5: P36508 395-408 (peptide)
chain: ESPPPKRPRIAYLS
B5: the normalised SPOT signal, Boehringer light units (BLU); mean over the file's lines of this peptide in test [1] amounted to 39.3; in test [2], 332.

B6: O15021 1020-1033 (peptide)
chain: EQGSLKRPVSRKVG
With B6, the normalised SPOT signal, Boehringer light units (BLU); mean over the file's lines of this peptide was determined as 47.3 in test [1] and 86.4 in test [2].

B7: Q9Y259 145-158 (peptide)
chain: EQYIPSRPLKTQEL
In the case of B7, the normalised SPOT signal, Boehringer light units (BLU); mean over the file's lines of this peptide in test [1] is 32.2; in test [2], 159.

B8: Q14333 377-390 (peptide)
chain: AGPRPRRPGSLPGW
Take B8: the normalised SPOT signal, Boehringer light units (BLU); mean over the file's lines of this peptide in test [1] is 203; in test [2], 805.

B9: O60298 756-769 (peptide)
chain: ESRDITRPSRPASY
Regarding B9, the normalised SPOT signal, Boehringer light units (BLU); mean over the file's lines of this peptide in test [1] was 539; in test [2], 192.

B10: Q12968 137-150 (peptide)
chain: EREFLERPSRDHLY
B10: the normalised SPOT signal, Boehringer light units (BLU); mean over the file's lines of this peptide in test [1] turned out to be 334; in test [2], 108.

B11: Q9HC10 643-656 (peptide)
chain: EVDGLSRPQRPRPR
Regarding B11, the normalised SPOT signal, Boehringer light units (BLU); mean over the file's lines of this peptide in test [1] was 135; in test [2], 281.

B12: Q9Y334 62-76 (peptide)
chain: EQPPPGRPPLRLED
For the molecule B12, the normalised SPOT signal, Boehringer light units (BLU); mean over the file's lines of this peptide in test [1] was 33.6; in test [2], 92.4.

B13: P01034 24-38 (peptide)
chain: AGSSPGKPPRLVGG
Regarding B13, the normalised SPOT signal, Boehringer light units (BLU); mean over the file's lines of this peptide was 272 in test [1] and 102 in test [2].

B14: Q9HBL3 239-252 (peptide)
chain: ETNIPQRPSRPARR
Take B14: the normalised SPOT signal, Boehringer light units (BLU); mean over the file's lines of this peptide in test [1] amounted to 20700; in test [2], 1800.

B15: Q9ULV5 88-101 (peptide)
chain: EQGGLLRPERDHVE
For the molecule B15, the normalised SPOT signal, Boehringer light units (BLU); mean over the file's lines of this peptide in test [1] worked out at 79.3; in test [2] it was 66.9.

B16: Q9UHD9 6-19 (peptide)
chain: ESSGPPRPSRGPAA
For the molecule B16, the normalised SPOT signal, Boehringer light units (BLU); mean over the file's lines of this peptide in test [1] turned out to be 2690; in test [2], 295.

B17: Q16530 104-117 (peptide)
chain: EVFFPPRPERVEHN
In the case of B17, the normalised SPOT signal, Boehringer light units (BLU); mean over the file's lines of this peptide came out at 484 in test [1] and 122 in test [2].

B18: Q9NRY7 86-99 (peptide)
chain: EVITLERPLRSNSS
In the case of B18, the normalised SPOT signal, Boehringer light units (BLU); mean over the file's lines of this peptide in test [1] amounted to 384; in test [2], 121.

B19: Q9NPF5 43-56 (peptide)
chain: ETLTFKRPEGMHRE
As to B19, the values for the normalised SPOT signal, Boehringer light units (BLU); mean over the file's lines of this peptide in test [1] and in test [2] were 29.5 and 0, respectively.

B20: P25440 318-332 (peptide)
chain: ESGRPIKPPRKDLP
For the molecule B20, the normalised SPOT signal, Boehringer light units (BLU); mean over the file's lines of this peptide in test [1] amounted to 8960; in test [2], 1950.

B21: Q9ULT8 713-726 (peptide)
chain: EVMILRRPSLQRRA
Regarding B21, the normalised SPOT signal, Boehringer light units (BLU); mean over the file's lines of this peptide in test [1] turned out to be 236; in test [2] it was 2210.

B22: Q9Y6U5 44-57 (peptide)
chain: ETSMLKRPVLLHLQ
Consider B22, for which the normalised SPOT signal, Boehringer light units (BLU); mean over the file's lines of this peptide in test [1] stood at 16.4; in test [2], 182.

B23: Q9UHE8 34-47 (peptide)
chain: ETSMLKRPVLLHLH
In the case of B23, the values for the normalised SPOT signal, Boehringer light units (BLU); mean over the file's lines of this peptide in test [1] and in test [2] were 79.9 and 440, respectively.

B24: O75408 12-26 (peptide)
chain: ETSGPERPPEKPRK
On to B24, for which the normalised SPOT signal, Boehringer light units (BLU); mean over the file's lines of this peptide was 38.5 in test [1] and 926 in test [2].

B25: Q96PC8 10-23 (peptide)
chain: EQRPLKRPRLGPPD
With B25, the normalised SPOT signal, Boehringer light units (BLU); mean over the file's lines of this peptide in test [1] came to 31; in test [2], 446.

B26: O43301 404-417 (peptide)
chain: EQFKIKRPAAWVDL
Consider B26, for which the normalised SPOT signal, Boehringer light units (BLU); mean over the file's lines of this peptide in test [1] was determined as 4.3; in test [2] it was 0.

B27: O60885 322-336 (peptide)
chain: ESSRPVKPPKKDVP
Take B27: the normalised SPOT signal, Boehringer light units (BLU); mean over the file's lines of this peptide in test [1] stood at 52.8; in test [2], 96.9.

B28: P40200 535-549 (peptide)
chain: ERPPPFKPPPPPIK
B28: the normalised SPOT signal, Boehringer light units (BLU); mean over the file's lines of this peptide in test [1] is 92.2; in test [2], 2690.

B29: O60896 2-15 (peptide)
chain: ETGALRRPQLLPLL
Take B29: the normalised SPOT signal, Boehringer light units (BLU); mean over the file's lines of this peptide in test [1] worked out at 39.4; in test [2] it was 127.

B30: Q9H5V9 75-88 (peptide)
chain: ETMYLRRPEGIERQ
On to B30, for which the results for the normalised SPOT signal, Boehringer light units (BLU); mean over the file's lines of this peptide in test [1] and in test [2] were 20.5 and 128, respectively.

B31: Q10472 159-172 (peptide)
chain: ERDFLKRPLESYVK
Consider B31, for which the values for the normalised SPOT signal, Boehringer light units (BLU); mean over the file's lines of this peptide in test [1] and in test [2] were 42.3 and 4.5, respectively.

B32: Q9P0R4 128-141 (peptide)
chain: EREALKRPMGPVHY
Consider B32, for which the normalised SPOT signal, Boehringer light units (BLU); mean over the file's lines of this peptide in test [1] stood at 11.6; in test [2] it was 50.5.

B33: Q9P2K1 987-1000 (peptide)
chain: EQKRPLRPRRKGRK
On to B33, for which the normalised SPOT signal, Boehringer light units (BLU); mean over the file's lines of this peptide in test [1] amounted to 11900; in test [2], 1010.

B34: O15162 171-184 (peptide)
chain: EVITLERPLRSSSS
B34: the normalised SPOT signal, Boehringer light units (BLU); mean over the file's lines of this peptide in test [1] came out at 660; in test [2], 102.

B35: P78524 857-870 (peptide)
chain: EVLELRRPMDSRLE
As for B35, the normalised SPOT signal, Boehringer light units (BLU); mean over the file's lines of this peptide amounted to 43.8 in test [1] and 34.9 in test [2].

B36: P11532 250-263 (peptide)
chain: EVEMLPRPPKVTKE
On to B36, for which the normalised SPOT signal, Boehringer light units (BLU); mean over the file's lines of this peptide turned out to be 103 in test [1] and 63 in test [2].

B37: Q14185 1731-1744 (peptide)
chain: ETISPLRPQRPKSQ
With B37, the normalised SPOT signal, Boehringer light units (BLU); mean over the file's lines of this peptide in test [1] is 4090; in test [2], 220.

B38: P81408 388-402 (peptide)
chain: ESPLPRRPPRAARS
On to B38, for which the normalised SPOT signal, Boehringer light units (BLU); mean over the file's lines of this peptide in test [1] was determined as 23200; in test [2] it was 8150.
